# How the values were obtained:
# [1] = biological target: the molecule itself; assay: cryo-EM structure; OBP + mini-OriS*, dimer-dimer assembly dataset; same reconstitution; lower resolution; dimers to dimer-dimer assembly
# [2] = biological target: T1, OBP (UL9 origin-binding protein), dimer (Herpes simplex virus 1, UniProt D3YPE9 1-851); assay: cryo-EM; no nucleotide; 5 mM MgCl2; one dimer at Box 1; 20 mM HEPES pH 7.8, 150 mM NaCl, 5 mM MgCl2, 2 mM DTT, 5% glycerol; 2 uM OBP, protein:DNA 1:1.2, 37 C 30 min, then vitrified; conditions: protein: recombinant; (StrepTrap purification; tag not described); chain copies: 2
# [3] = biological target: T2, OBP (UL9 origin-binding protein), dimer-dimer assembly (Herpes simplex virus 1, UniProt D3YPE9 1-851); assay: cryo-EM (2D classes); two dimers, each apparently on two antiparallel OriS helices (Box 1 and Box 2); low frequency; 20 mM HEPES pH 7.8, 150 mM NaCl, 5 mM MgCl2, 2 mM DTT, 5% glycerol; 2 uM OBP, protein:DNA 1:1.2, 37 C 30 min, then vitrified; conditions: protein: recombinant; (StrepTrap purification; tag not described); chain copies: 4
# [4] = biological target: T1, OBP (UL9 origin-binding protein), dimer; assay: cryo-EM; ATPgS, Mg2+; one dimer at Box 1; 20 mM HEPES pH 7.8, 150 mM NaCl, 5 mM MgCl2, 2 mM DTT, 5% glycerol; 2 uM OBP, protein:DNA 1:1.2, 37 C 30 min, then vitrified; conditions: protein: recombinant; (StrepTrap purification; tag not described); chain copies: 2
# [5] = biological target: T2, OBP (UL9 origin-binding protein), …; assay: cryo-EM; two dimers with putatively two mini-OriS* copies; 20 mM HEPES pH 7.8, 150 mM NaCl, 5 mM MgCl2, 2 mM DTT, 5% glycerol; 2 uM OBP, protein:DNA 1:1.2, 37 C 30 min, then vitrified; conditions: protein: recombinant; (StrepTrap purification; tag not described); chain copies: 4; hairpin with 3' single-stranded tail
# [6] = biological target: OBP (UL9 origin-binding protein), monomer (Herpes simplex virus 1, UniProt D3YPE9 1-851); assay: cryo-EM; monomer; preferred orientation, DNA path needs validation; 20 mM HEPES pH 7.8, 150 mM NaCl, 5 mM MgCl2, 2 mM DTT, 5% glycerol; 2 uM OBP, protein:DNA 1:1.2, 37 C 30 min, then vitrified; conditions: protein: recombinant; (StrepTrap purification; tag not described); hairpin with 3' single-stranded tail
binder,measurement,setting,value
"HSV-1 origin-binding protein (OBP), encoded by the UL9 gene (enzyme, No viral strain is named; Tag removal is not mentioned; also called monomer A; monomer B; source: ExpiSf9 cells (recombinant baculovirus), purified (StrepTrap HP, eluted with desthiobiotin)) MPFVGGAESGDPLGAGRPIGDDECEQYTSSVSLARMLYGGDLAEWVPRVHPKTTIERQQHGPVTFPNASAPTARCVTVVRAPMGSGKTTALIRWLREAIHSPDTSVLVVSCRRSFTQTLATRFAESGLVDFVTYFSSTNYIMNDRPFHRLIVQVESLHRVGPNLLNNYDVLVLDEVMSTLGQLYSPTMQQLGRVDALMLRLLRICPRIIAMDATANAQLVDFLCGLRGEKNVHVVVGEYAMPGFSARRCLFLPRLGTELLQAALRPPGPPSGPSPDASPEARGATFFGELEARLGGGDNICIFSSTVSFAEIVARFCRQFTDRVLLLHSLTPLGDVTTWGQYRVVIYTTVVTVGLSFDPLHFDGMFAYVKPMNYGPDMVSVYQSLGRVRTLRKGELLIYMDGSGARSEPVFTPMLLNHVVSSCGQWPAQFSQVTNLLCRRFKGRCDASACDTSLGRGSRIYNKFRYKHYFERCTLACLSDSLNILHMLLTLNCIRVRFWGHDDTLTPKDFCLFLRGVHFDALRAQRDLRELRCRDPEASLPAQAAETEEVGLFVEKYLRSDVAPAEIVALMRNLNSLMGRTRFIYLALLEACLRVPMATRSSAIFRRIYDHYATGVIPTINVTGELELVALPPTLNVTPVWELLCLCSTMAARLHWDSAAGGSGRTFGPDDVLDLLTPHYDRYMQLVFELGHCNVTDGLLLSEEAVKRVADALSGCPPRGSVSETDHAVALFKIIWGELFGVQMAKSTQTFPGAGRVKNLTKQTIVGLLDAHHIDHSACRTHRQLYALLMAHKREFAGARFKLRVPAWGRCLRTHSSSANPNADIILEAALSELPTEAWPMMQGAVNFSTL",stoichiometry N,[1],4
OriS-6AT (dsDNA) DNA 1: AAAAGAAGTGAGAACGCGAAGCGTTCGCACTTCGTCCCAATATATTATTAGGGCGAAGTGCGAGCACTGGCGCC DNA 2: GGCGCCAGTGCTCGCACTTCGCCCTAATAATATATTGGGACGAAGTGCGAACGCTTCGCGTTCTCACTTCTTTT,binding result,[2],binds
OriS (dsDNA) DNA 1: AAAAGAAGTGAGAACGCGAAGCGTTCGCACTTCGTCCCAATATATATATATTATTAGGGCGAAGTGCGAGCACTGGCGCC DNA 2: GGCGCCAGTGCTCGCACTTCGCCCTAATAATATATATATATTGGGACGAAGTGCGAACGCTTCGCGTTCTCACTTCTTTT,binding result,[3],binds
same,binding result,[4],binds
AAAAGAAGTGAGAACGCGAAGCGTTCGCACTTCGTTTTTTTTTT (structured_DNA) [mini-OriS*],binding result,[5],binds
same,binding result,[6],binds
